Measurements reported in patent US9260500B2, “Peptide and use thereof” (Takeda Pharmaceutical Company Limited, priority 2009, dated 2016).
Starred links: 1 amine or outer side, 2 acyl side, 3 side chain; linkers in the order of their positions; H or OH if unused. Non-standard residues stand in square brackets, D forms with d. *: point of attachment. X4 = ((1S)-1-Carboxy-3-methylbutyl)carbamoyl, CC(C)C[C@H](NC(=O)*)C(=O)O; Ala(piperidin-4-yl) = O=C([C@H](CC1CCN([*:3])CC1)N[*:1])[*:2]; X5 = tetrahydro‑2H‑pyran‑4‑yl‑carbamoyl, O=C(NC1CCOCC1)*; (3-Carboxypropyl)carbamoyl = O=C(O)CCCNC(=O)*; carbamoylmethylcarbamoyl = NC(=O)CNC(=O)*; Imidazole4carbonyl = O=C(c1cnc[nH]1)*; 4Pal = N[C@@H](Cc1ccncc1)C(=O)O; dHyp = O=C(O)[C@H]1C[C@H](O)CN1; Cha = N[C@@H](CC1CCCCC1)C(=O)O; Suc = O=C(CCC(=O)[*:2])[*:1]; dIva = CC[C@@](C)(N)C(=O)O; Iva = CC[C@](C)(N)C(=O)O; Aib = CC(C)(N)C(=O)O

Key:
human Y2 receptor [1] = target: T1, human Y2 receptor (Homo sapiens, UniProt P49146); assay: Receptor Binding Assay (RBA) for Human Y2, [125I]-PYY displacement on hY2R/CHO membrane fraction; details: IC50 of test compound/IC50 of PYY(3-36) (PYY(3-36) taken as 1)
T1 construct: expressed in transfected cells; membrane fraction
T1 sequence (P49146 1-381): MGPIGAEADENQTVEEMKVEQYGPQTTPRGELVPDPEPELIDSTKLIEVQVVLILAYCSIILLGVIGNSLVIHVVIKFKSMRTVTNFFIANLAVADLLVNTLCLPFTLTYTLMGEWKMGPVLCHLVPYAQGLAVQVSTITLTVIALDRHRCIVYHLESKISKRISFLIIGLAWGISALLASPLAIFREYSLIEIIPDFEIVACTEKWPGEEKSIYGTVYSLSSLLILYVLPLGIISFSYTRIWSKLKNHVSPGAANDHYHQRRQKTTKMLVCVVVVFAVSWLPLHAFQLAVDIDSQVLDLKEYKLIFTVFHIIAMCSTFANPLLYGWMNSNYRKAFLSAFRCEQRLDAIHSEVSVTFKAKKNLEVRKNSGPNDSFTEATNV
Summary of the method: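 hY2R stably expressed in CHO/dhfr− cells; membrane fraction prepared from cells disrupted in 10 mM NaHCO3, 5 mM EDTA buffer with protease inhibitors. Binding read as displacement of [125I]-PYY.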

human Y2 receptor [2] = target: T1, human Y2 receptor; assay: Human Y2 Receptor G Protein Binding Assay (GBA), [35S]GTPγS; format: biochemical; details: EC50 of test compound/EC50 of PYY(3-36) (PYY3-36 taken as 1), hY2R/CHO membrane fraction
Summary of the method: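 Agonism measured as [35S]GTPγS binding, read by GF/C filtration and scintillation counting after 120 min at room temperature, using human Y2 membranes at 1 μg protein/mL in pH 7.4 Tris/MgCl2/NaCl/GDP buffer. Compound serially diluted 100 μM–1 nM; EC50 normalized to PYY(3-36) (ratio = compound/PYY).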

male C57EL/6J mice = assay: 3-Days Continuous Subcutaneous Administration Test-1 (food intake suppressing activity); format: in vivo, mouse; details: 0.03 mg/kg/day, subcutaneous Alzet pump, food consumption over 3 days; relative to food intake suppression rate for PYY(3-36) (1 mg/kg/day) taken as 100%
Summary of the method: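 Male […] mice, 12-13 weeks, received compound at 0.03 mg/kg/day by subcutaneous osmotic pump (50% DMSO vehicle), housed singly with free food access. Food consumed over 3 days measured; suppression expressed relative to PYY(3-36) (1 mg/kg/day) set as 100%.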

## Ac-[Glu23, D-Hyp24, Cha27,28,36, Lys30, Aib31]-PYY(23-36) (Ac-E[dHyp]RH[Cha][Cha]NK[Aib]TRQR[Cha]-NH2; SMILES CC(=O)N[C@@H](CCC(=O)O)C(=O)N1C[C@@H](O)C[C@@H]1C(=O)N[C@@H](CCCNC(=N)N)C(=O)N[C@@H](Cc1c[nH]cn1)C(=O)N[C@@H](CC1CCCCC1)C(=O)N[C@@H](CC1CCCCC1)C(=O)N[C@@H](CC(N)=O)C(=O)N[C@@H](CCCCN)C(=O)NC(C)(C)C(=O)N[C@H](C(=O)N[C@@H](CCCNC(=N)N)C(=O)N[C@@H](CCC(N)=O)C(=O)N[C@@H](CCCNC(=N)N)C(=O)N[C@@H](CC1CCCCC1)C(N)=O)[C@@H](C)O) [compound No. 204]
Human Y2 receptor [1]
  RBA IC50 Ratio: 0.8
Human Y2 receptor [2]
  GBA EC50 Ratio: 1.3
Male C57EL/6J mice
  food intake suppression rate (%): 16%

## Ac-[D-Iva24, Pya(4)26, Cha27,36, Aib28,31, Lys30]-PYY(23-36) (Ac-S[dIva]R[4Pal][Cha][Aib]NK[Aib]TRQR[Cha]-NH2; SMILES CC[C@@](C)(NC(=O)[C@H](CO)NC(C)=O)C(=O)N[C@@H](CCCNC(=N)N)C(=O)N[C@@H](Cc1ccncc1)C(=O)N[C@@H](CC1CCCCC1)C(=O)NC(C)(C)C(=O)N[C@@H](CC(N)=O)C(=O)N[C@@H](CCCCN)C(=O)NC(C)(C)C(=O)N[C@H](C(=O)N[C@@H](CCCNC(=N)N)C(=O)N[C@@H](CCC(N)=O)C(=O)N[C@@H](CCCNC(=N)N)C(=O)N[C@@H](CC1CCCCC1)C(N)=O)[C@@H](C)O) [compound No. 242]
Human Y2 receptor [1]
  RBA IC50 Ratio: 0.39
Human Y2 receptor [2]
  GBA EC50 Ratio: 1.3
Male C57EL/6J mice
  food intake suppression rate (%): 25%

## [(1S)-1-Carboxy-3-methylbutyl]carbamoyl-[Gln23, D-Pro24, Pya(4)26, Cha27,36, Aib28,31, Lys30]-PYY(23-36) (X4-Q[dP]R[4Pal][Cha][Aib]NK[Aib]TRQR[Cha]-NH2; SMILES CC(C)C[C@H](NC(=O)N[C@@H](CCC(N)=O)C(=O)N1CCC[C@@H]1C(=O)N[C@@H](CCCNC(=N)N)C(=O)N[C@@H](Cc1ccncc1)C(=O)N[C@@H](CC1CCCCC1)C(=O)NC(C)(C)C(=O)N[C@@H](CC(N)=O)C(=O)N[C@@H](CCCCN)C(=O)NC(C)(C)C(=O)N[C@H](C(=O)N[C@@H](CCCNC(=N)N)C(=O)N[C@@H](CCC(N)=O)C(=O)N[C@@H](CCCNC(=N)N)C(=O)N[C@@H](CC1CCCCC1)C(N)=O)[C@@H](C)O)C(=O)O) [compound No. 284]
Human Y2 receptor [1]
  RBA IC50 Ratio: 0.93
Human Y2 receptor [2]
  GBA EC50 Ratio: 1.3
Male C57EL/6J mice
  food intake suppression rate (%): 21%

## 3-Carboxypropionyl-[D-Pro24, Pya(4)26, Cha27,36, Aib28,31, Lys30]-PYY(23-36) (Suc-S[dP]R[4Pal][Cha][Aib]NK[Aib]TRQR[Cha]-NH2; SMILES C[C@@H](O)[C@H](NC(=O)C(C)(C)NC(=O)[C@H](CCCCN)NC(=O)[C@H](CC(N)=O)NC(=O)C(C)(C)NC(=O)[C@H](CC1CCCCC1)NC(=O)[C@H](Cc1ccncc1)NC(=O)[C@H](CCCNC(=N)N)NC(=O)[C@H]1CCCN1C(=O)[C@H](CO)NC(=O)CCC(=O)O)C(=O)N[C@@H](CCCNC(=N)N)C(=O)N[C@@H](CCC(N)=O)C(=O)N[C@@H](CCCNC(=N)N)C(=O)N[C@@H](CC1CCCCC1)C(N)=O) [compound No. 217]
Human Y2 receptor [1]
  RBA IC50 Ratio: 0.96
Human Y2 receptor [2]
  GBA EC50 Ratio: 1.2
Male C57EL/6J mice
  food intake suppression rate (%): 28%

## 4-Imidazolecarbonyl-[Aib24,28,31, Iva25, Pya(4)26, Cha27,36, Lys30]-PYY(23-36) [compound No. 344]
Human Y2 receptor [1]
  RBA IC50 Ratio: 1.9
Human Y2 receptor [2]
  GBA EC50 Ratio: 1.7
Male C57EL/6J mice
  food intake suppression rate (%): 22%

## (3-Carboxypropyl)carbamoyl-[D-Pro24, Iva25, Pya(4)26, Cha27,36, Aib28,31, Lys30]-PYY(23-36) ({(3-Carboxypropyl)carbamoyl}-S[dP][Iva][4Pal][Cha][Aib]NK[Aib]TRQR[Cha]-NH2; SMILES CC[C@](C)(NC(=O)[C@H]1CCCN1C(=O)[C@H](CO)NC(=O)NCCCC(=O)O)C(=O)N[C@@H](Cc1ccncc1)C(=O)N[C@@H](CC1CCCCC1)C(=O)NC(C)(C)C(=O)N[C@@H](CC(N)=O)C(=O)N[C@@H](CCCCN)C(=O)NC(C)(C)C(=O)N[C@H](C(=O)N[C@@H](CCCNC(=N)N)C(=O)N[C@@H](CCC(N)=O)C(=O)N[C@@H](CCCNC(=N)N)C(=O)N[C@@H](CC1CCCCC1)C(N)=O)[C@@H](C)O) [compound No. 328]
Human Y2 receptor [1]
  RBA IC50 Ratio: 1.6
Human Y2 receptor [2]
  GBA EC50 Ratio: 1.9
Male C57EL/6J mice
  food intake suppression rate (%): 75%

## Ac-[D-Pro24, Pya(4)26, Cha27,36, Aib28,31, Ala(4-pip)30]-PYY(23-36) (Ac-S[dP]R[4Pal][Cha][Aib]N[Ala(piperidin-4-yl)][Aib]TRQR[Cha]-NH2; SMILES CC(=O)N[C@@H](CO)C(=O)N1CCC[C@@H]1C(=O)N[C@@H](CCCNC(=N)N)C(=O)N[C@@H](Cc1ccncc1)C(=O)N[C@@H](CC1CCCCC1)C(=O)NC(C)(C)C(=O)N[C@@H](CC(N)=O)C(=O)N[C@@H](CC1CCNCC1)C(=O)NC(C)(C)C(=O)N[C@H](C(=O)N[C@@H](CCCNC(=N)N)C(=O)N[C@@H](CCC(N)=O)C(=O)N[C@@H](CCCNC(=N)N)C(=O)N[C@@H](CC1CCCCC1)C(N)=O)[C@@H](C)O) [compound No. 313]
Human Y2 receptor [1]
  RBA IC50 Ratio: 0.72
Human Y2 receptor [2]
  GBA EC50 Ratio: 0.8
Male C57EL/6J mice
  food intake suppression rate (%): 23%

## Tetrahydro-2H-pyran-4-yl-carbamoyl-[Glu23, D-Pro24, Pya(4)26, Cha27,36, Aib28,31, Lys30]-PYY(23-36) (X5-E[dP]R[4Pal][Cha][Aib]NK[Aib]TRQR[Cha]-NH2; ends and bridges not checked) [compound No. 282]
Human Y2 receptor [1]
  RBA IC50 Ratio: 1.1
Human Y2 receptor [2]
  GBA EC50 Ratio: 1.6
Male C57EL/6J mice
  food intake suppression rate (%): 30%

## 4-Imidazolecarbonyl-[Glu23, D-Pro24, Pya(4)26, Cha27,36, Aib28,31, Lys30]-PYY(23-36) (Imidazole4carbonyl-E[dP]R[4Pal][Cha][Aib]NK[Aib]TRQR[Cha]-NH2; SMILES C[C@@H](O)[C@H](NC(=O)C(C)(C)NC(=O)[C@H](CCCCN)NC(=O)[C@H](CC(N)=O)NC(=O)C(C)(C)NC(=O)[C@H](CC1CCCCC1)NC(=O)[C@H](Cc1ccncc1)NC(=O)[C@H](CCCNC(=N)N)NC(=O)[C@H]1CCCN1C(=O)[C@H](CCC(=O)O)NC(=O)c1cnc[nH]1)C(=O)N[C@@H](CCCNC(=N)N)C(=O)N[C@@H](CCC(N)=O)C(=O)N[C@@H](CCCNC(=N)N)C(=O)N[C@@H](CC1CCCCC1)C(N)=O) [compound No. 216]
Human Y2 receptor [1]
  RBA IC50 Ratio: 1.3
Human Y2 receptor [2]
  GBA EC50 Ratio: 1.3
Male C57EL/6J mice
  food intake suppression rate (%): 36%

## Carbamoylmethylcarbamoyl-[D-Pro24, Iva25, Pya(4)26, Cha27,36, Aib28,31, Lys30]-PYY(23-36) (carbamoylmethylcarbamoyl-S[dP][Iva][4Pal][Cha][Aib]NK[Aib]TRQR[Cha]-NH2; SMILES CC[C@](C)(NC(=O)[C@H]1CCCN1C(=O)[C@H](CO)NC(=O)NCC(N)=O)C(=O)N[C@@H](Cc1ccncc1)C(=O)N[C@@H](CC1CCCCC1)C(=O)NC(C)(C)C(=O)N[C@@H](CC(N)=O)C(=O)N[C@@H](CCCCN)C(=O)NC(C)(C)C(=O)N[C@H](C(=O)N[C@@H](CCCNC(=N)N)C(=O)N[C@@H](CCC(N)=O)C(=O)N[C@@H](CCCNC(=N)N)C(=O)N[C@@H](CC1CCCCC1)C(N)=O)[C@@H](C)O) [compound No. 331]
Human Y2 receptor [1]
  RBA IC50 Ratio: 1.7
Human Y2 receptor [2]
  GBA EC50 Ratio: 1.7
Male C57EL/6J mice
  food intake suppression rate (%): 35%

## 4-Imidazolecarbonyl-[D-Hyp24, Iva25,28, Pya(4)26, Cha27,36, Lys30, Adb31]-PYY(23-36) [compound No. 337]
Human Y2 receptor [1]
  RBA IC50 Ratio: 0.99
Human Y2 receptor [2]
  GBA EC50 Ratio: 1.3
Male C57EL/6J mice
  food intake suppression rate (%): 49%

## Ac-[D-Pro24, Pya(4)26, Cha27,36, Iva28, Lys30, D-Iva31]-PYY(23-36) (Ac-S[dP]R[4Pal][Cha][Iva]NK[dIva]TRQR[Cha]-NH2; SMILES CC[C@@](C)(NC(=O)[C@H](CCCCN)NC(=O)[C@H](CC(N)=O)NC(=O)[C@](C)(CC)NC(=O)[C@H](CC1CCCCC1)NC(=O)[C@H](Cc1ccncc1)NC(=O)[C@H](CCCNC(=N)N)NC(=O)[C@H]1CCCN1C(=O)[C@H](CO)NC(C)=O)C(=O)N[C@H](C(=O)N[C@@H](CCCNC(=N)N)C(=O)N[C@@H](CCC(N)=O)C(=O)N[C@@H](CCCNC(=N)N)C(=O)N[C@@H](CC1CCCCC1)C(N)=O)[C@@H](C)O) [compound No. 249]
Human Y2 receptor [1]
  RBA IC50 Ratio: 0.36
Human Y2 receptor [2]
  GBA EC50 Ratio: 0.67
Male C57EL/6J mice
  food intake suppression rate (%): 39%
